Laboratory results from US20210356479A1 (BLOODWORKS, published 2021).
Changes are numbered by the printed parent chain.

T1: human Kell glycoprotein, K form (KEL1) (human, UniProt P23276 1-732)
T1 construct: whole, on cells; On human K/K or K+k+ RBCs and on RBCs of K transgenic mice; also called K antigen; K variant
T1 sequence (looked up): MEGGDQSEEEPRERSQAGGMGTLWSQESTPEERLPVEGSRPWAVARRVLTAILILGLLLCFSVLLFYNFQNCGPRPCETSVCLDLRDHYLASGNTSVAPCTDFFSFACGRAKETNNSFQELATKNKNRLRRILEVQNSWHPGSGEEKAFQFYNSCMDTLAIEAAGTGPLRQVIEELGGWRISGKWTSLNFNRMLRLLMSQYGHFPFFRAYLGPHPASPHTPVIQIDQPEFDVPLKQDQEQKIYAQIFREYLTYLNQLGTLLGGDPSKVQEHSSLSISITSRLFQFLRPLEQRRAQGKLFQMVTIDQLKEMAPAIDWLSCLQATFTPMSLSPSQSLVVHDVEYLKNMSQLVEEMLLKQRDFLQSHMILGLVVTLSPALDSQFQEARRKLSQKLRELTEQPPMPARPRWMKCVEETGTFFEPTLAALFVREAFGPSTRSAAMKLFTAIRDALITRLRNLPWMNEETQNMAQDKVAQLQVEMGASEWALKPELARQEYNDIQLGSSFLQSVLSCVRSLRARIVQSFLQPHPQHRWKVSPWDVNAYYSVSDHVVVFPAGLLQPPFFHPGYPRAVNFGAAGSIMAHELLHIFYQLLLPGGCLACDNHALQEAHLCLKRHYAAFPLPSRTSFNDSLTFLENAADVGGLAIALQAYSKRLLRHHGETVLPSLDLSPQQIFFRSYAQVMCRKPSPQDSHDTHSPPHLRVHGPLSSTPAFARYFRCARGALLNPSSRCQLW

T2: human Kell glycoprotein, k form (KEL2) (human, UniProt P23276 1-732)
T2 construct: whole, on cells; On human k/k or K-k+ RBCs; also called k antigen
T2 sequence (looked up): T1 sequence (looked up) with M193T

B1: PUMA 1 human IgG1-03 isoallotype (antibody)
heavy: EVQLQQSGPELVKPGASVKMSCKASGYTFTDYYMKWVKQSHGKSLEWIGDLNPNNGDTFYNQKFKGKATLTVDKSSSTAYIQLNSLTSEDSAVYYCAREAGSSFGSSCNYWGQGTTLTVS
light: SVVMTQTPKFLLVSAGDRVTITCKASQTVSKDVAWYQQQPGQSPKLLIYYASNRYTGVPDRFTGSGYGTDFTFTISTVQAEDLAVYFCQQDYSSPYTFGGGTKLEIK
notes: Isoallotype named in CLM-00007; not shown: human IgG1 heavy chain constant region, isoallotype IGHG1*03; human kappa light chain constant region (vector pFUSE2-CLIg-hk)
B2: PUMA 1 human IgG2-02 isoallotype (antibody)
heavy: B1 heavy
light: B1 light
notes: Isoallotype named in CLM-00007; not shown: human IgG2 heavy chain constant region, isoallotype IGHG2*02; human kappa light chain constant region (vector pFUSE2-CLIg-hk)
B3: PUMA 1 human IgG1-08 isoallotype (antibody)
heavy: B1 heavy
light: B1 light
notes: Isoallotype named in CLM-00007; not shown: human IgG1 heavy chain constant region, isoallotype IGHG1*08; human kappa light chain constant region (vector pFUSE2-CLIg-hk)
B4: PUMA 1 human IgG2-04 isoallotype (antibody)
heavy: B1 heavy
light: B1 light
notes: Isoallotype named in CLM-00007; not shown: human IgG2 heavy chain constant region, isoallotype IGHG2*04; human kappa light chain constant region (vector pFUSE2-CLIg-hk)
B5: PUMA 1 human IgG3-04 isoallotype (antibody)
heavy: B1 heavy
light: B1 light
notes: Isoallotype named in CLM-00007; not shown: human IgG3 heavy chain constant region, isoallotype IGHG3*04; human kappa light chain constant region (vector pFUSE2-CLIg-hk)
B6: PUMA 1 human IgG1-04v2 isoallotype (antibody)
heavy: B1 heavy
light: B1 light
notes: Isoallotype named in CLM-00007; also called IGHG1*04v2; not shown: human IgG1 heavy chain constant region, isoallotype IGHG1*04v2; human kappa light chain constant region (vector pFUSE2-CLIg-hk)
B7: PUMA 1 human IgG1-05 isoallotype (antibody)
heavy: B1 heavy
light: B1 light
notes: Isoallotype named in CLM-00007; not shown: human IgG1 heavy chain constant region, isoallotype IGHG1*05; human kappa light chain constant region (vector pFUSE2-CLIg-hk)
B8: PUMA 1 human IgG3-08 isoallotype (antibody)
heavy: B1 heavy
light: B1 light
notes: Isoallotype named in CLM-00007; not shown: human IgG3 heavy chain constant region, isoallotype IGHG3*08; human kappa light chain constant region (vector pFUSE2-CLIg-hk)
B9: PUMA 1 human IgG1-07 isoallotype (antibody)
heavy: B1 heavy
light: B1 light
notes: Isoallotype named in CLM-00007; not shown: human IgG1 heavy chain constant region, isoallotype IGHG1*07; human kappa light chain constant region (vector pFUSE2-CLIg-hk)
B10: PUMA 1 human IgG3-03 isoallotype (antibody)
heavy: B1 heavy
light: B1 light
notes: also called PUMA1-IgG3-03; not shown: human kappa light chain constant region (vector pFUSE2-CLIg-hk)
B11: PUMA 1 human IgG1-01v2 isoallotype (antibody)
heavy: B1 heavy
light: B1 light
notes: Isoallotype named in CLM-00007; also called IGHG1*01v2; not shown: human IgG1 heavy chain constant region, isoallotype IGHG1*01v2; human kappa light chain constant region (vector pFUSE2-CLIg-hk)
B12: PUMA 1 human IgG3-06 isoallotype (antibody)
heavy: B1 heavy
light: B1 light
notes: Isoallotype named in CLM-00007; also called PUMA1-IgG3-6; not shown: human IgG3 heavy chain constant region, isoallotype IGHG3*06; human kappa light chain constant region (vector pFUSE2-CLIg-hk)
B13: PUMA 1 human IgG2-06 isoallotype (antibody)
heavy: B1 heavy
light: B1 light
notes: Isoallotype named in CLM-00007; not shown: human IgG2 heavy chain constant region, isoallotype IGHG2*06; human kappa light chain constant region (vector pFUSE2-CLIg-hk)
B14: PUMA 1 human IgG1 (canonical, isoallotype IgG1-01) (antibody)
heavy: not shown
light: B1 light
notes: also called PUMA1-IgG1; PUMA 1 IgG1; not shown: human kappa light chain constant region (vector pFUSE2-CLIg-hk)
B15: PUMA 1 human IgG2 (canonical, isoallotype IgG2-01) (antibody)
heavy: EVQLQQSGPELVKPGASVKMSCKASGYTFTDYYMKWVKQSHGKSLEWIGDLNPNNGDTFYNQKFKGKATLTVDKSSSTAYIQLNSLTSEDSAVYYCAREAGSSFGSSCNYWGQGTTLTVSASTKGPSVFPLAPCSRSTSESTAALGCLVKDYFPEPVTVSWNSGALTSGVHTFPAVLQSSGLYSLSSVVTVPSSNFGTQTYTCNVDHKPSNTKVDKTVERKCCVECPPCPAPPVAGPSVFLFPPKPKDTLMISRTPEVTCVVVDVSHEDPEVQFNWYVDGVEVHNAKTKPREEQFNSTFRVVSVLTVVHQDWLNGKEYKCKVSNKGLPAPIEKTISKTKGQPREPQVYTLPPSREEMTKNQVSLTCLVKGFYPSDIAVEWESNGQPENNYKTTPPMLDSDGSFFLYSKLTVDKSRWQQGNVFSCSVMHEALHNHYTQKSLSLSPGK
light: B1 light
notes: also called PUMA1-IgG2; PUMA 1 IgG2; not shown: human kappa light chain constant region (vector pFUSE2-CLIg-hk)
B16: PUMA 1 human IgG3 (canonical, isoallotype IgG3-01) (antibody)
heavy: EVQLQQSGPELVKPGASVKMSCKASGYTFTDYYMKWVKQSHGKSLEWIGDLNPNNGDTFYNQKFKGKATLTVDKSSSTAYIQLNSLTSEDSAVYYCAREAGSSFGSSCNYWGQGTTLTVSASTKGPSVFPLAPCSRSTSGGTAALGCLVKDYFPEPVTVSWNSGALTSGVHTFPAVLQSSGLYSLSSVVTVPSSSLGTQTYTCNVNHKPSNTKVDKRVELKTPLGDTTHTCPRCPEPKSCDTPPPCPRCPEPKSCDTPPPCPRCPEPKSCDTPPPCPRCPAPELLGGPSVFLFPPKPKDTLMISRTPEVTCVVVDVSHEDPEVQFKWYVDGVEVHNAKTKPREEQYNSTFRVVSVLTVLHQDWLNGKEYKCKVSNKALPAPIEKTISKTKGQPREPQVYTLPPSREEMTKNQVSLTCLVKGFYPSDIAVEWESSGQPENNYNTTPPMLDSDGSFFLYSKLTVDKSRWQQGNIFSCSVMHEALHNRFTQKSLSLSPGK
light: B1 light
notes: also called PUMA1-IgG3; PUMA 1 IgG3; not shown: human kappa light chain constant region (vector pFUSE2-CLIg-hk)
B17: PUMA 1 human IgG4 (canonical, isoallotype IgG4-01) (antibody)
heavy: EVQLQQSGPELVKPGASVKMSCKASGYTFTDYYMKWVKQSHGKSLEWIGDLNPNNGDTFYNQKFKGKATLTVDKSSSTAYIQLNSLTSEDSAVYYCAREAGSSFGSSCNYWGQGTTLTVSASTKGPSVFPLAPCSRSTSESTAALGCLVKDYFPEPVTVSWNSGALTSGVHTFPAVLQSSGLYSLSSVVTVPSSSLGTKTYTCNVDHKPSNTKVDKRVESKYGPPCPSCPAPEFLGGPSVFLFPPKPKDTLMISRTPEVTCVVVDVSQEDPEVQFNWYVDGVEVHNAKTKPREEQFNSTYRVVSVLTVLHQDWLNGKEYKCKVSNKGLPSSIEKTISKAKGQPREPQVYTLPPSQEEMTKNQVSLTCLVKGFYPSDIAVEWESNGQPENNYKTTPPVLDSDGSFFLYSRLTVDKSRWQEGNVFSCSVMHEALHNHYTQKSLSLSPGK
light: B1 light
notes: also called PUMA1-IgG4; PUMA 1 IgG4; not shown: human kappa light chain constant region (vector pFUSE2-CLIg-hk)

Each binder was assayed against T1, human Kell glycoprotein, K form (KEL1) (assay: flow cytometry on human K+k+ RBCs, detected with polyclonal anti-IgG).
Protocol: Flow cytometry consisted of incubating test RBCs with PUMA 1 variants, followed by the anti-IgG being evaluated, followed by a detection reagent. Test RBCs included RBCs from K mice, wild-type mice, and reagent RBCs from humans with the phenotype of (K+k+) or (K−k+). Test RBCs were resuspended in 50 microliters of supernatants of PUMA 1 isoallotypes; in some cases a 1/10 dilution in phosphate buffered saline (PBS) was used. For purified IgG1-IgG4 PUMA 1, the antibodies were diluted in PBS at the indicated concentrations. The tested anti-IgG reagents were used undiluted. Detection reagents consisted of donkey anti-rabbit conjugated to phycoerythrin at a 1/200 dilution (Affymetrix cat #12-4739-81, Santa Clara, Calif.), goat anti-mouse IgM conjugated to allophycocyanin at a 1/100 dilution (BD Biosciences, cat #550826, San Jose, Calif.), and goat anti-mouse Igs conjugated to allophycocyanin at a 1/100 dilution (SouthernBiotech cat #1020-11s, Birmingham, Ala.). All anti-IgG subclass antibodies were conjugated to phycoerythrin, were purchased from SouthernBiotech (catalog numbers 9056-09, 9070-09, 9210-09, 9200-09), and were used at a dilution of 1.200. All incubations were performed for 30 min at room temperature, followed by three washes with PBS. All flow cytometry was performed on an Accuri 4 color cytometer (BD biosciences, San Jose Calif.) and all data was analyzed with Flo-Jo version 10.
To assess the sensitivity of commercially available anti-IgG preparations for different human IgG subclasses bound to RBCs, K+k+ RBCs were first incubated with PUMA 1 of the different human IgG subclasses, followed by incubation with anti-IgG. Treated RBCs were then stained with a fluorescently labeled antibody specific for the species in which the anti-IgG was generated (and non-reactive with human IgG). For each anti-IgG, the same secondary antibody was used to detect binding of the anti-IgG to each human PUMA 1 IgG subclass. To assess relative sensitivity, titrations of each PUMA 1 IgG subclass were carried out and samples were analyzed by flow cytometry using mean fluorescent intensity (MFI) to quantify staining (FIGS. 28A, 28B).

| binding result | Binder |
| --- | --- |
| binds | B1 |
| binds | B2 |
| binds | B3 |
| binds | B4 |
| binds | B5 |
| binds | B6 |
| binds | B7 |
| binds | B8 |
| binds | B9 |
| binds | B10 |
| binds | B11 |
| binds | B12 |
| binds | B13 |

These binders were tested against T2, human Kell glycoprotein, k form (KEL2) (assay: flow cytometry on human K-k+ RBCs).

| binding result | Binder |
| --- | --- |
| no binding | B1 |
| no binding | B2 |
| no binding | B3 |
| no binding | B4 |
| no binding | B5 |
| no binding | B6 |
| no binding | B7 |
| no binding | B8 |
| no binding | B9 |
| no binding | B14 |
| no binding | B15 |
| no binding | B10 |
| no binding | B11 |
| no binding | B12 |
| no binding | B16 |
| no binding | B13 |
| no binding | B17 |
